Assay results: US20190031771A1 (University of Pennsylvania, published 2019)
Positions count from the first letter of the chain named.

T1: human ADAMTS13 (human, UniProt Q76LX8 75-1427)
T1 construct: ELISA: full-length recombinant ADAMTS13 coated on plates (Technoclone); Activity assays: endogenous ADAMTS13 of normal human plasma; also called full-length human recombinant ADAMTS13; VWF-cleaving protease
T1 sequence (looked up): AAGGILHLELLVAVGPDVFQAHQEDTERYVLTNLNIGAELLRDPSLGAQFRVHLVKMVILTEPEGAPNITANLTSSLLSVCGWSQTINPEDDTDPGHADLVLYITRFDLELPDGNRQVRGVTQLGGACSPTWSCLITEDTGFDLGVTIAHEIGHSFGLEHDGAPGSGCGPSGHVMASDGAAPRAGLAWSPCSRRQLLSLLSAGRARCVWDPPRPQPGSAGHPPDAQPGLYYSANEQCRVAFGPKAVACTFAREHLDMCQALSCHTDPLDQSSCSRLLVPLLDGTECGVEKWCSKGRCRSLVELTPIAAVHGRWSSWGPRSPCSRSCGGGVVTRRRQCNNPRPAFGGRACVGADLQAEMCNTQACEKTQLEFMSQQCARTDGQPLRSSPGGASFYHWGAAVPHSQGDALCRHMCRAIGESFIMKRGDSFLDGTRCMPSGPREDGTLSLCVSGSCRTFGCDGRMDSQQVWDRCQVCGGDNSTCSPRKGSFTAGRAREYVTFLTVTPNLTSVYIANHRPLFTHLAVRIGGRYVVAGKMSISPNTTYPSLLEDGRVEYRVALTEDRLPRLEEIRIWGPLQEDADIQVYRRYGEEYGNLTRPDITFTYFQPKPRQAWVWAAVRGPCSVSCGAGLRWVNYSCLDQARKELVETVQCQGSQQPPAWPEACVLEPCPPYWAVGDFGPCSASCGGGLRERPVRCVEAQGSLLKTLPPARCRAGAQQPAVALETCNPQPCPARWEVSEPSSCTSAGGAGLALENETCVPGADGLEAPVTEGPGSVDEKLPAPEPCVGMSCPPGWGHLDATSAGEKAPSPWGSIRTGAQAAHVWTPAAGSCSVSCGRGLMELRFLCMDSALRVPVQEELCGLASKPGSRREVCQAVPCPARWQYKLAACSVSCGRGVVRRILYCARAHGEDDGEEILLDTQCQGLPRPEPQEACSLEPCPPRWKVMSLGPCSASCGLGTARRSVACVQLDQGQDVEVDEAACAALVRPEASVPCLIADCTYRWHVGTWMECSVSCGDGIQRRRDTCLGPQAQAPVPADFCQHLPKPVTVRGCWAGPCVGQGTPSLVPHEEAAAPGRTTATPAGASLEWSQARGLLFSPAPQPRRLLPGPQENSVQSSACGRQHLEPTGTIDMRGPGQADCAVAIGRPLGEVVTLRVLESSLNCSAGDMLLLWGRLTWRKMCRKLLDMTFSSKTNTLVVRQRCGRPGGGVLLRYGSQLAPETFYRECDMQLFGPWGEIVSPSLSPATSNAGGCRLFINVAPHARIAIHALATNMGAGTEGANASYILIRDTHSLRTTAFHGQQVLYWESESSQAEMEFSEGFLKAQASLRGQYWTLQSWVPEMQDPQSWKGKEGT

B1: scFv 1-432 (scFv, V domains shown)
VH: QVQLVQSGAEVKKPLSSVKVSCKASGGTFNMYDINWVRQAPGQGLEWMGGIVPILGVTNYAQNFQGRLTITADKSTSTAYMELSSLRSEDTAVYYCARGVAAGWNAFDVWGQGTMVTVSA
VL: ELVLTQPPSMSVVPGQTARITCGGDNIGSKSVHWYQQKPGQAPVLVVNDDTERPSGIPDRFSGSNSGNTATLVISRVGAGDEADYFCQVWDSRSDHQVFGGGTKLTVL
B2: scFv 1-451 (scFv, V domains shown)
VH: QVQLVQSGGGLVQPGRSLRLSCAASGFIFDDYAMHWVRQAPGKGLEWVSGISWNSGSIGYADSVKGRFTISRDNAKNSLYLQMNSLRAEDTALYYCAKDPNSLYRSGSFDYWGQGTLVTVSS
VL: not shown
B3: scFv 1-440 (scFv, V domains shown)
VH: B2 VH with Q1E, V5L, Q6E
VL: ELQMTQSPSSLSASVGDRVTITCRASQSISSYLNWYQQKPGKAPKLLIYAASSLESGVPSRFSGSGSGTDFTLTISSLQPEDFASYYCQQSYSTPFTFGPGTKVDIK
B4: scFv 1-423 (scFv, V domains shown)
VH: QVQLVQSGAEVKRPGSSVKVSCKASGGTFSSYTISWVRQAPGQGLEWMGSIIPVLDVTSYAQQFQGRVTITADKSTKTAYMDLSSLTFEDTALYFCSIGRYTYGHFDTWGQGTQVTVSS
VL: ELVLTQPPSVSVAPGKTARVTCGGGNIGDKAVHWYQQRPGQAPVLVVFGDSARPSGIPERFSGSNSGNTATLTISRVEVGDEADYYCQVWDSNSDHQVFGGGTKLTVL
B5: scFv 1-410 (scFv, V domains shown)
VH: QVQLQESGGGVVQPGGSLRLSCAASGFTFDDYTMHWVRQAPGKGLEWVSLISWDGGSTYYADSVKGRFTISRDNSKNSLYLQMNSLRTEDTALYYCAKDNGYDILTDYLDSWGQGTLVTVSS
VL: ELQMTQSPSSLSASVGDRVTITCQASQDISNYLNWYQQKPGKAPKLLIYDASNLETGVPSRFSGSGSGTDFTFTISSLQPEDIATYYCQQYDNLPLTFGQGTRLEIK
B6: scFv 1-413 (scFv, V domains shown)
VH: QVQLVQSGSEVKKPGSSVKVSCKASGGTFSSHTLSWVRQAPGQGLEWMGEIIPILDRVKYSQNFQGRVTITADKSTNTTYMELSSVRSEDTAVYYCVSNGWSNFDFWGQGTLVTVSP
VL: ELELTQPPSVSVSPGQTARITCSGGALPKHYVYWYQQKPGQAPAVVIYKDTERPSGIPERFSGSTSGATVTLTISGVQADDDAVYFCQSVDSNDTSWIFGGGTKLTVL
B7: scFv 1-418 (scFv, V domains shown)
VH: B6 VH with L34V, K59N, S61A, Q62E, E82D, V86L, V97T, P117S
VL: B6 VL with E3V, V32A, A68T
B8: scFv 1-415 (scFv, V domains shown)
VH: QVQLQESGGGVVQPGRSLRLSCAASGFTFRNYAMHWVRQAPGKGLEWVAVISYDGGKEYYADSVKGRFTISRDNSKNTLYLQMNSLRAEDTAVYYCARDTFSYYDFWRAFDYWGQGTLVTVSS
VL: ELELTQPPSVSGSPGQSITISCTGTSSDVGGYNYVSWYQQHPGKAPKLMIYEVSNRPSGVSNRFSGSKSGNTASLTISGLQAEDEADYYCSSYTSSSTVVFGGGTKLTVL
B9: scFv 1-437 (scFv, V domains shown)
VH: QVQLVQSGGGLVKPGGSLRLSCAASGFIFSNYIMNWVRQAPGKGLEWVSSISSSGSYIYYADSVKGRFTISRDNAKNSMYLQMNSLRGEDTAVYYCAAAYDFWSGYYFWGQGTTVTVSS
VL: B8 VL with E3A, S97T, T98P, V99Y, G103T, L107V
B10: scFv 1-417 (scFv, V domains shown)
VH: QVQLVQSGTEVKKFGSSVKVSCKASGGSFSSYTISWVRQAPGQGLEWMGSFIPILERANYAQKFQGRVTFTADKTTSTAYMELGGLRSQDTAVYYCARDLGDFGDSWGQGTLVTVSS
VL: ELVLTQPPSVSVAPGKTARITCGGNNIGSKTVHWYQQKPGQAPVVVVSDDSERPSGIPERFSGSNSGNTATLTISRVEGGDEADYYCQVWDSSNDQVVFGGGTELTVL

Target: T1, human ADAMTS13
Assay: phage ELISA on ADAMTS13-coated plates (positive: >10-fold absorbance above background)

Binder | binding result
B1 | binds
B2 | binds
B3 | binds
B4 | binds
B5 | binds
B6 | binds
B7 | binds
B8 | binds
B9 | binds
B10 | binds
